Assay results published in US10597433B2, “Peptides and combination of peptides for use in immunotherapy against small cell lung cancer and other cancers” (Immatics Biotechnologies GmbH, priority 2015, dated 2020).

Molecular target: HLA-A*02:01 (Homo sapiens, UniProt P04439, D140Y/D185E/D98H/E176V/E277Q/G131W/G231S/I119V/I121R/I166T/I218V/L300P/L318F/N151K/N90K/P208A/P217A/Q86G/Q94H/R138H/R169H/T345S)
Experiment: MHC binding assay: UV-ligand exchange with ELISA detection of β2m of stabilized MHC complexes
Settings: binding to HLA-A*02:01
Text: Candidate peptides for T cell based therapies according to the present invention were further tested for their MHC binding capacity (affinity). The individual peptide-MHC complexes were produced by UV-ligand exchange, where a UV-sensitive peptide is cleaved upon UV-irradiation, and exchanged with the peptide of interest as analyzed. Only peptide candidates that can effectively bind and stabilize the peptide-receptive MHC molecules prevent dissociation of the MHC complexes. To determine the yield of the exchange reaction, an ELISA was performed based on the detection of the light chain (β2m) of stabilized MHC complexes. The assay was performed as generally described in Rodenko et al. (Rodenko et al., 2006).
96 well MAXISorp plates (NUNC) were coated over night with 2 μg/ml streptavidin in PBS at room temperature, washed 4× and blocked for 1 h at 37° C. in 2% BSA containing blocking buffer. Refolded HLA-A*02:01/MLA-001 monomers served as standards, covering the range of 15-500 ng/ml. Peptide-MHC monomers of the UV-exchange reaction were diluted 100 fold in blocking buffer. Samples were incubated for 1 h at 37° C., washed four times, incubated with 2 μg/ml HRP conjugated anti-β2m for 1 h at 37° C., washed again and detected with TMB solution that is stopped with […]. Absorption was measured at 450 nm. Candidate peptides that show a high exchange yield (preferably higher than 50%, most preferred higher than 75%) are generally preferred for a generation and production of antibodies or fragments thereof, and/or T cell receptors or fragments thereof, as they show sufficient avidity to the MHC molecules and prevent dissociation of the MHC complexes.

Substance	Peptide exchange (MHC class I binding score, peptide exchange yield)
1 (AMLEEVNYI; listed as Homo sapiens) [compound 1]	+++ (≥50 = +++)
3 (VLAEIDPKQLV; listed as Homo sapiens) [compound 3]	+++ (≥50 = +++)
5 (SLQSLIISV; listed as Homo sapiens) [compound 5]	++++ (≥75% = ++++)
7 (GLLGDIAIHL; listed as Homo sapiens) [compound 7]	+++ (≥50 = +++)
9 (AAAPGEALHTA; listed as Homo sapiens) [compound 9]	++ (≥20% = ++)
12 (MLFEGLDLVSA; listed as Homo sapiens) [compound 12]	+++ (≥50 = +++)
13 (FLTAFLVQI; listed as Homo sapiens) [compound 13]	+++ (≥50 = +++)
14 (ILIETKLVL; listed as Homo sapiens) [compound 14]	+++ (≥50 = +++)
15 (SLLTAISEV; listed as Homo sapiens) [compound 15]	+++ (≥50 = +++)
16 (VILDLPLVI; listed as Homo sapiens) [compound 16]	+++ (≥50 = +++)
17 (SLMLVTVEL; listed as Homo sapiens) [compound 17]	+++ (≥50 = +++)
18 (ALGEISVSV; listed as Homo sapiens) [compound 18]	+++ (≥50 = +++)
19 (VLLTTAVEV; listed as Homo sapiens) [compound 19]	+++ (≥50 = +++)
20 (MLDEILLQL; listed as Homo sapiens) [compound 20]	+++ (≥50 = +++)
21 (TMEEMIFEV; listed as Homo sapiens) [compound 21]	+++ (≥50 = +++)
22 (LLPEKSWEI; listed as Homo sapiens) [compound 22]	+++ (≥50 = +++)
23 (YQIDTVINL; listed as Homo sapiens) [compound 23]	+++ (≥50 = +++)
24 (FLMEEVHMI; listed as Homo sapiens) [compound 24]	+++ (≥50 = +++)

Substance	Peptide exchange (MHC class I binding score, peptide exchange yield)
25 (GLSETILAV; listed as Homo sapiens) [compound 25]	++++ (≥75% = ++++)
26 (KMLDEAVFQV; listed as Homo sapiens) [compound 26]	++++ (≥75% = ++++)
27 (SLDIITITV; listed as Homo sapiens) [compound 27]	++++ (≥75% = ++++)
28 (ILVSQLEQL; listed as Homo sapiens) [compound 28]	++++ (≥75% = ++++)
30 (KMLGLTVSL; listed as Homo sapiens) [compound 30]	+++ (≥50 = +++)
31 (RLLQDPVGV; listed as Homo sapiens) [compound 31]	++++ (≥75% = ++++)
32 (ALTSLELEL; listed as Homo sapiens) [compound 32]	+++ (≥50 = +++)
34 (LVFEGIMEV; listed as Homo sapiens) [compound 34]	+++ (≥50 = +++)
35 (FMGDVFINV; listed as Homo sapiens) [compound 35]	++++ (≥75% = ++++)
36 (RMDGAVTSV; listed as Homo sapiens) [compound 36]	+++ (≥50 = +++)
37 (SLFYNELHYV; listed as Homo sapiens) [compound 37]	+++ (≥50 = +++)
38 (GLISSLNEI; listed as Homo sapiens) [compound 38]	++++ (≥75% = ++++)
40 (GLLEVQVEV; listed as Homo sapiens) [compound 40]	+++ (≥50 = +++)
41 (KAYQELLATV; listed as Homo sapiens) [compound 41]	+++ (≥50 = +++)
42 (GLLEDERALQL; listed as Homo sapiens) [compound 42]	+++ (≥50 = +++)
43 (YLWSEVFSM; listed as Homo sapiens) [compound 43]	+++ (≥50 = +++)
44 (ALIVGIPSV; listed as Homo sapiens) [compound 44]	++++ (≥75% = ++++)
45 (SLSGEIILHSV; listed as Homo sapiens) [compound 45]	++ (≥20% = ++)

Results, then the substance that gave them:

Peptide exchange (MHC class I binding score, peptide exchange yield)	Substance
+++ (≥50 = +++)	46 (ALWVAVPKA; listed as Homo sapiens) [compound 46]
+++ (≥50 = +++)	47 (GLLEALLKI; listed as Homo sapiens) [compound 47]
+++ (≥50 = +++)	48 (SLIGLDLSSV; listed as Homo sapiens) [compound 48]
++ (≥20% = ++)	49 (RLALNTPKV; listed as Homo sapiens) [compound 49]
+++ (≥50 = +++)	50 (FLLSQIVAL; listed as Homo sapiens) [compound 50]
+++ (≥50 = +++)	51 (ILDEAGVKYFL; listed as Homo sapiens) [compound 51]
++++ (≥75% = ++++)	52 (ILASFMLTGV; listed as Homo sapiens) [compound 52]
++++ (≥75% = ++++)	53 (LLSEEHITL; listed as Homo sapiens) [compound 53]
++++ (≥75% = ++++)	54 (HLFDIILTSV; listed as Homo sapiens) [compound 54]
++++ (≥75% = ++++)	55 (LLIADNPQL; listed as Homo sapiens) [compound 55]
+++ (≥50 = +++)	56 (SLFSQMGSQYEL; listed as Homo sapiens) [compound 56]
++++ (≥75% = ++++)	57 (VLIGDVLVAV; listed as Homo sapiens) [compound 57]
++++ (≥75% = ++++)	58 (VLLNINGIDL; listed as Homo sapiens) [compound 58]
++++ (≥75% = ++++)	59 (VLLSGLTEV; listed as Homo sapiens) [compound 59]
++++ (≥75% = ++++)	60 (VVSGATETL; listed as Homo sapiens) [compound 60]
+++ (≥50 = +++)	61 (YQAPYFLTV; listed as Homo sapiens) [compound 61]
+++ (≥50 = +++)	62 (VMLPIGAVVMV; listed as Homo sapiens) [compound 62]
+++ (≥50 = +++)	63 (LLMSTENEL; listed as Homo sapiens) [compound 63]
+++ (≥50 = +++)	64 (VLFHQLQEI; listed as Homo sapiens) [compound 64]
+++ (≥50 = +++)	65 (VMYDLITEL; listed as Homo sapiens) [compound 65]
+++ (≥50 = +++)	66 (YLNLISTSV; listed as Homo sapiens) [compound 66]
